Values quoted from earlier work as cited in patent publication US11672857B2, “Compositions and methods for a multi-adjuvant only approach to immunoprophylaxis for preventing infections” (University of Southern California, priority 2017, dated 2023).

System: T cell
Conditions: compared with non-glycosylated ovalbumin produced in E. coli

B1: Yeast-mannosylated ovalbumin: recombinant ovalbumin mannosylated by yeast during production (Lam et al.) (protein, UniProt P01012 2-386, looked up)
Ovalbumin: GSIGAASMEFCFDVFKELKVHHANENIFYCPIAIMSALAMVYLGAKDSTRTQINKVVRFDKLPGFGDSIEAQCGTSVNVHSSLRDILNQITKPNDVYSFSLASRLYAEERYPILPEYLQCVKELYRGGLEPINFQTAADQARELINSWVESQTNGIIRNVLQPSSVDSQTAMVLVNAIVFKGLWEKAFKDEDTQAMPFRVTEQESKPVQMMYQIGLFRVASMASEKMKILELPFASGTMSMLVLLPDEVSGLEQLESIINFEKLTEWTSSNVMEERKIKVYLPRMKMEEKYNLTSVLMAMGITDVFSSSANLSGISSAESLKISQAVHAAHAEINEAGREVVGSAEAGVDAASVSEEFRADHPFLFCIKHIATNAVLFFGRCVSP
modifications: yeast mannosylation
Question: With B1 as the molecule, how does the T cell proliferation read?
Answer: Its T cell proliferation is “significantly greater T cell proliferation than did non-glycosylated ovalbumin produced in E. coli”.
